Data as given in patent US20220396632A1 (VERSEAU THERAPEUTICS, published 2022).
Non-standard residues stand in square brackets, D forms with d. No end group written: not given here. *: point of attachment. Biotin = O=C1N[C@H]2[C@H](CS[C@H]2CCCCC(=O)*)N1; sY = N[C@@H](Cc1ccc(OS(=O)(=O)O)cc1)C(=O)O

T1: SulfoTyr C4 peptide (not fully specified; Y4, Y7 and Y9 sulfated (SO3); C-terminal biotin)
T1 construct: also called C4 alpha chain peptide; human sulfotyrosinylated C4 peptide
T1 peptide: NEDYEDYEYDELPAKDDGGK

T2: Sulfotyr fibrinogen γ peptide (not fully specified; Y8 and Y12 sulfated (SO3); C-terminal biotin)
T2 construct: also called Fibrinogen gamma peptide; human sulfotyrosinylated fibrinogen peptide
T2 peptide: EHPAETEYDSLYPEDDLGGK

T3: Recombinant human PSGL-1(ECD)-hFc1 (R&D Systems, Cat. 3345-PS) (human, UniProt Q14242 42-305)
T3 construct: Bought; Gln42-Val295 counted on AAC50061; also called PSGL-1-Fc; PSGL-1-hFc1 chimera; not shown: human IgG1 Fc, Pro100-Lys330
T3 sequence: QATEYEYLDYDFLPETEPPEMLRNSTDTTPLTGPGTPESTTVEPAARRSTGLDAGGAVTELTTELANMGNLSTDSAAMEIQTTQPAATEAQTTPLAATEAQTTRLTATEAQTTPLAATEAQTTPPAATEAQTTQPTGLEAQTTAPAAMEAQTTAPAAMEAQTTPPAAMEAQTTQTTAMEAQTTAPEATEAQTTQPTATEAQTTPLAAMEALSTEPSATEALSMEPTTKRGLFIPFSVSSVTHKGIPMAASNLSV

T4: Sulfotyrosine CCR2b biotin peptide (human)
T4 construct: also called CCR2b peptide
T4 peptide: TTFFD[sY]D[sY]GAPSHGGK(Biotin)

T5: Biotin PSGL-1(42-62) peptide, unmodified (human, C-terminal Lys-biotin)
T5 construct: Residues 42-62 followed by GGGK-biotin; also called WT; wild-type
T5 peptide: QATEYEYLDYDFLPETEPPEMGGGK

T6: Biotin Y46,48,51(SO3) PSGL-1(42-62) peptide (human, sulfotyrosine at Y46, Y48 and Y51; C-terminal Lys-biotin)
T6 construct: also called fully sulfated N-terminal PSGL-1 peptide
T6 peptide: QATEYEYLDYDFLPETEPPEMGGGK

T7: Scrambled Y42,52,63(SO3) PSGL-1(42-62) biotin peptide (sulfotyrosine at peptide positions 1, 11 and 22; C-terminal Lys-biotin)
T7 peptide: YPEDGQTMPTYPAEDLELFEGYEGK

B1: 19I01 (antibody, V domains shown)
VH: EVQLVESGGGLVKPGGSRKLSCAASGFTFSDYGMHWVRQAPEKGLEWVAYISSGSSTIYYADTVKGRFTISRDNAKNTLFLQMTSLRSEDTAMYYCARGVDGYWGQGTTLTVSS
VL: DVVMTQTPLSLPVSLGDQASISCRSSQSLVHSNGNTYLHWYLQKPGQSPKFLIYKVSNRFSGVPDRFSGSGSGTDFTLKISRVEAEDLGVYFCSQTTHVPLTFGAGTKLELK
notes: From mouse immunisation; only variable domains given; also called 19101
B2: 03D07 (antibody, IgG4, V domains shown)
VH: EVKLLESGGGLVQPGGSLRLSCAASGFTFSSYALSWVRQAPGKGLEWVSAISGSGGNTYYADSVKGRFTISRDNSKNTLYLQMNSLRAEDTAVYYCAKVVGATNYWGQGTLVTVSS
VL: DIVMTQTPLSLPVTLGQPASISCRSSQSLVYSDGHTYLSWFHQRPGQSPRRLIYKVSIRDSGVPDRFSGSGSGTDFTLKISRVEAEDVGVYYCMQRLQIPLTFGGGTKVEIK
B3: 10F01 (antibody, IgG4, V domains shown)
VH: EVQLVQSGGGLVQPGGSLRLSCAASGFTFSSYAMSWVRQAPGKGLEWVSALRGGDGGTYHADSVKGRFTISGDSSKNTLYLQMNSLRAEDTAVYYCARRMVGAAYAFDIWGQGTMVTVSS
VL: LPVLTQPHSVSESPGKTVTISCTRSSGSIADNFVQWYRQRPGSAPTTVIYEGDQRPSGVPGRFSGSIDSSSNSASLTISGLQTDDEADYYCQSFDSYNRRTHVVFGGGTKLTVL
B4: 2E12 (antibody, V domains shown)
VH: QVQLQQSGAELARPGASVKLSCKASGYTFTNYGLNWVKQRTGQGLEWIGEIYPRSGNTYYNEKFKGKATLTADKSSSTAYMQLSSLTSEDSAVYFCATEGAYWGQGTLVTVSA
VL: DIVMTQTPLTLSVTIGQPASISCKSSQSLLHGNGKTYLNWLLQRPGQSPKLLIYLVSKLESGIPDRFSGSGSGTDFTLEISRVEAEDLGIYYCLQSTHFPRTFGGGTKLEIK
notes: Mouse hybridoma mAb; only variable domains given
B5: 16L15 (antibody, V domains shown)
VH: DVKLVESGGGLVKLGGSLKLSCAASGFTFSSYYMSWVRQTPEKRLEWVATISNGGGSTYYPDSVKDRFTISRDNAKNTLYLQMSSLNSEDTAVYYCAKPLYYSNPWFAYWGQGTLVTVSA
VL: DVLLTQTPLSLPVSLGDQASISCRSSQSIVHSNGNTYLEWYLQKPGQSPKLLIYKVSNRFSGVPDRFSGSGSGTDFTLKISRVEAEDLGVYYCFQGSHVPRTFGGGTKLEIK
notes: From mouse immunisation; only variable domains given
B6: 20I15 (antibody, V domains shown)
VH: EVKLVESGGGLVQPGGSLSLSCAASGFTFTDYYMSWVRQPPGKALEWLGFIRNKANGYTTEYSASVKGRFTISRDNSQSILYLQMNALRAEDSATYYCARTYLRRGYFDVWGTGTTVTVSS
VL: DIVLTQSPASLAVSLGQRATISCRASKSVSTSGYSYMHWFQQKPGQPPKLLIYLASNLESGVPARFSGSGSGTDFTLNIHPVEEEDAATYYCQHSRELPLTFGAGTKLELK
notes: From mouse immunisation; only variable domains given; also called 20115
B7: 18F02 (antibody, V domains shown)
VH: QVQLQQPGAELVKPGASVKLSCKASGYTFTSYWMHWVKQRPGQGLEWIGMIHPNSGRTNYNEKFKSKATLTVDKSSSTAYMQLSSLTSEDSAVYYCARSDYWGQGTTLTVSS
VL: DIVMTQAAFSNPVTLGTSASISCRSSKSLLHSDGITYLYWFLQRPGQSPQLLIYRMSNLASGVPDRFSGSGSGTDFTLRISRVEAEDVGVYYCAQMLEFPRTFGGGTKLEIK
notes: as for B5

How the values were obtained:
SulfoTyr C4 peptide = target: T1, SulfoTyr C4 peptide; assay: ELISA, 50 nM mAb
Description: (§1) Recombinant PSGL-1-hFc1 chimera protein consisting of PSGL-1's extracellular domain (ECD) served as a positive control. […] Primary antibody was added (25 ul per well) in duplicate at 50 nM in assay buffer (blocking buffer containing 0.05% Tween®20) into test and control (just blocked) wells and the plate incubated for 45 min at 37° C.

[1] = target: T2, Sulfotyr fibrinogen γ peptide; assay: ELISA, 50 nM mAb
Description: as §1

[2] = target: T3, Recombinant human PSGL-1(ECD)-hFc1 (R&D …); assay: ELISA, 50 nM mAb
Description: as §1

[3] = target: T8, Human complement C4 protein (Millipore Sigma, Cat. 204886) (human, UniProt P0C0L4 20-675; P0C0L4 680-1446; P0C0L4 1454-1744, limits assumed, natural sulfotyrosines); assay: ELISA, 50 nM mAb
T8 construct: mature
T8 sequence (P0C0L4 20-675 limits assumed, form in doubt, chain 1 of 3): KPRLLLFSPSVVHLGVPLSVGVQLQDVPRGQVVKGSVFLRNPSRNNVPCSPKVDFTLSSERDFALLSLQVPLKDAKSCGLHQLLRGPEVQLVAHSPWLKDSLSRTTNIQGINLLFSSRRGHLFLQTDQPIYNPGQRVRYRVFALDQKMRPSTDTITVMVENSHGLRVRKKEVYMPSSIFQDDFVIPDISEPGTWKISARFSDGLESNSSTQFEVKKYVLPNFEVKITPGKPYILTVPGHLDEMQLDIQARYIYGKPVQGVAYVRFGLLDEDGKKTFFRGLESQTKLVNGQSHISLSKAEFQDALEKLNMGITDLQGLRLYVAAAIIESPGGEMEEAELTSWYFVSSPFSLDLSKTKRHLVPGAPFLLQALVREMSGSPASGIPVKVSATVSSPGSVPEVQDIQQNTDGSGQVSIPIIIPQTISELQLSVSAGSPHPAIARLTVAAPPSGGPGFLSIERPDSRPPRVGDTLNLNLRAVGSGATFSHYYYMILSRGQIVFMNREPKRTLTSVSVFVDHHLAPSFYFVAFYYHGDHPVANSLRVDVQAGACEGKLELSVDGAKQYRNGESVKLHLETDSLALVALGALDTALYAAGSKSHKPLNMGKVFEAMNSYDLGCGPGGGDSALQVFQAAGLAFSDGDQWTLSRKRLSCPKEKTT
T8 sequence (P0C0L4 680-1446 limits assumed, form in doubt, chain 2 of 3): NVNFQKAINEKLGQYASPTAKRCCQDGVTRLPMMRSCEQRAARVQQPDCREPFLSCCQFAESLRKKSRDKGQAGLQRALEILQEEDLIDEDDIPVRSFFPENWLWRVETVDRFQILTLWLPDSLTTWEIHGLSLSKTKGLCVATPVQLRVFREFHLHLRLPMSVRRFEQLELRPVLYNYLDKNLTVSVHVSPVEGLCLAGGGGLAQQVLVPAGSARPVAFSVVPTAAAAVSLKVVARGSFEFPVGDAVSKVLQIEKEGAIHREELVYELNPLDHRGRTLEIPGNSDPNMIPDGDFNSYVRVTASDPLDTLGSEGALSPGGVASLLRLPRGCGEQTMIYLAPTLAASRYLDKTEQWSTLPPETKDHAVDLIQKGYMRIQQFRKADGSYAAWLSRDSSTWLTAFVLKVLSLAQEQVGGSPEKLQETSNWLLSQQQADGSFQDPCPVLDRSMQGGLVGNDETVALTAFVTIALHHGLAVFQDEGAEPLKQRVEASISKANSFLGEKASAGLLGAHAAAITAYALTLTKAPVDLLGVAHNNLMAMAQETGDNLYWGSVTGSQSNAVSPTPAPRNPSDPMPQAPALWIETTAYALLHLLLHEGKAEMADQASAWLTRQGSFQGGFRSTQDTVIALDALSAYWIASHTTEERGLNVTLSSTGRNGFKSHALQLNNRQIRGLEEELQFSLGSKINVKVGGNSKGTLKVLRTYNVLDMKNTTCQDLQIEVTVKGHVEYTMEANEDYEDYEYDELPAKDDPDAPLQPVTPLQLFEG
T8 sequence (P0C0L4 1454-1744 limits assumed, form in doubt, chain 3 of 3): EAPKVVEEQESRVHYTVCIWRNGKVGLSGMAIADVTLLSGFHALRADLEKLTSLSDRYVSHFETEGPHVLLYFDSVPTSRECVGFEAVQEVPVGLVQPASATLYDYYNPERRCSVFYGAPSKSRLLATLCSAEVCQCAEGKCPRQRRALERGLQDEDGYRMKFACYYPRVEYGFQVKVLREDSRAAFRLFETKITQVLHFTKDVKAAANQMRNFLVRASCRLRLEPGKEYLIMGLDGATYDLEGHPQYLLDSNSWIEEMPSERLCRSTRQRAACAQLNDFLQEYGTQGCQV
Description: as §1

[4] = target: T4, Sulfotyrosine CCR2b biotin peptide; assay: ELISA, 50 nM mAb
Description: as §1

[5] = target: T3, Recombinant human PSGL-1(ECD)-hFc1 (R&D …); assay: blocking ELISA vs L-selectin-Fc
Outline: (§2)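 Antibodies, diluted serially in duplicate in 3% BSA, were incubated for 45 min at 37° C on wells coated with 2.5 ug/mL PSGL-1-Fc.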

[6] = target: T3, Recombinant human PSGL-1(ECD)-hFc1 (R&D …); assay: blocking ELISA vs P-selectin-Fc
Outline: as §2

[7] = target: T5, Biotin PSGL-1(42-62) peptide, unmodified; assay: ELISA, immobilized biotin peptide
Outline: (§3)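 In this ELISA, half-well high binding plates (Corning Cat. #3690) received 3 ug/mL/25 ul per well of biotin-tagged PSGL-1 peptides covering residues 42 to 62, diluted in PBS, pH 7.4, and coated overnight at 4° C. Duplicate readings for each antibody were averaged and the average assay background was subtracted. PSGL-1 protein or peptide was the positive control.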

[8] = target: T6, Biotin Y46,48,51(SO3) PSGL-1(42-62) …; assay: ELISA, immobilized biotin peptide
Outline: as §3

[9] = target: T7, Scrambled Y42,52,63(SO3) PSGL-1(42-62) …; assay: ELISA, immobilized biotin peptide
Outline: as §3

[10] = target: T9, Cynomolgus PSGL-1(ECD)-hFc1 (cynomolgus macaque); assay: ELISA, 20 nM mAb on plate cyno PSGL-1(ECD)-Fc
T9 construct: also called Cyno PSGL1-Fc; Cyno PSGL-1(ECD)-Fc
T9 sequence (chain, as listed by the source limits assumed): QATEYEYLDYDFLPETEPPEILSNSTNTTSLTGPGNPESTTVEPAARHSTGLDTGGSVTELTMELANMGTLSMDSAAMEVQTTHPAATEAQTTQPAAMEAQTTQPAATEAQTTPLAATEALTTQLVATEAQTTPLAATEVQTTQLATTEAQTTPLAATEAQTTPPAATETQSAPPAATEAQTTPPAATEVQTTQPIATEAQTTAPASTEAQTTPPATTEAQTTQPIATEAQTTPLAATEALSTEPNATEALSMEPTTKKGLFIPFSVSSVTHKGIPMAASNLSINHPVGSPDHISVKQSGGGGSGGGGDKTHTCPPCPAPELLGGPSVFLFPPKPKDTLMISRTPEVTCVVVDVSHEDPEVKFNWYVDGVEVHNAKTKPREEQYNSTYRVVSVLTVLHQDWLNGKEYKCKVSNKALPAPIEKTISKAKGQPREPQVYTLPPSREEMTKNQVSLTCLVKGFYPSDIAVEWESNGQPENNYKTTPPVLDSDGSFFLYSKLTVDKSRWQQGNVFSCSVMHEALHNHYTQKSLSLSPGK
Outline: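 Binding signal is TMB absorbance at 450 nm from HRP detection of IgG captured on immobilized cyno PSGL-1 extracellular domain, averaged over duplicates after background subtraction. Antibodies were tested at one concentration (20 nM) or across 0.003-200 nM, incubating 45 min at 37° C.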

| Binder | binding normalized to PSGL-1 (SulfoTyr C4 peptide) | binding result (SulfoTyr C4 peptide) | binding normalized to PSGL-1 [1] | binding result [1] | A450nm [2] | binding normalized to PSGL-1 [3] | binding normalized to PSGL-1 [4] | binding result [4] | % max Block [5] | IC50 [5] | % max Block [6] | IC50 [6] | EC50 [7] | EC50 [8] | binding result [9] | A450nm, 20 nM mAb [8] | A450nm [10] |
| --- | --- | --- | --- | --- | --- | --- | --- | --- | --- | --- | --- | --- | --- | --- | --- | --- | --- |
| B1 | -0.01 | no binding (tested: 50 nM) | -0.01 | no binding (tested: 50 nM) | 2.33 A450nm | -0.01 | 0.02 | no binding (tested: 50 nM) | 100% | 5 nM | 100% | 4 nM | 0.844 nM | 0.844 nM | – | – | – |
| B2 | 0.71 | – | 0.49 | – | 2.25 A450nm | 0.53 | 0.16 | – | 100% | 6 nM | 100% | 5 nM | > 500 nM | – | no binding (tested: 20 nM) | 2.73 A450nm | 0.74 A450 nm |
| B3 | 0.17 | – | 0.06 | – | 2.1 A450nm | 0.06 | 0.03 | – | 100% | 6 nM | 100% | 4 nM | – | – | – | 2.39 A450nm | 1.22 A450 nm |
| B4 | 0.03 | – | 0.76 | – | 1.99 A450nm | 0.1 | 0.03 | – | 0% | – | 0% | – | 0.694 nM | 0.87 nM | – | – | – |
| B5 | 0.01 | no binding (tested: 50 nM) | 0.11 | – | 2.33 A450nm | 0.02 | 0.03 | – | 100% | 9 nM | 100% | 10 nM | 0.695 nM | 0.699 nM | – | – | 1.22 A450 nm |
| B6 | 0.34 | – | 0.37 | – | 2.45 A450nm | 0.09 | 0.21 | – | 65% | 20 nM | 52% | 100 nM | ~300 nM | 0.485 nM | – | – | – |
| B7 | – | no binding (tested: 50 nM) | 0.21 | – | 2.33 A450nm | 0.03 | 0.03 | – | 100% | 10 nM | 100% | 6 nM | 0.702 nM | 0.658 nM | – | – | 2 A450 nm |
